Reference: PMC11193222, “The serine-rich repeat glycoprotein Srr2 mediates Streptococcus agalactiae interaction with host fibronectin” (BMC Microbiology, 2024)

B1: recombinant Srr2 binding region (rSrr2-BR) (domain or fragment)
chain: EAATTARVQPRAMRVVSSASDMETLPAALISGEGDVTTVQGQDVTDKLQNLDIKLSGGVQAKAGVINMDKSESMHMSLKFTIDSVNRGDTFEIKLSDNIDTNGASNYSIVEPIKSPTGEVYATGIYDSQKKSIVYSFTDFAASKNNINGILDIPLWPDDTTVQNTKEDVLFSVKIKDQEATIKETVKYDPPVRIDFAGGVSVDSRITNIDDVGKKMTYISQINVDGKSLYNYNGLYTRIYNYSKESTADLKNSTIKIYKTTSDNIVESMVQDYSSMEDVTSKFANSYPEKGWYDIYWGQFIASNETYVIVVETPFTNAVTLNTTLSDYNENNGVEHNHTYSSESGYSDVNAQ

Legend:
[1] = target: recombinant Srr2 binding region (rSrr2-BR) (Streptococcus agalactiae (GBS) strain BM110) (UniProt Q3S2Y8); test: ELISA; Srr2 proteins coated on microtiter wells (1 ug/well, 0.1 M sodium carbonate pH 9.5); soluble Fn (up to 240 nM) or Fbg (up to 7.5 nM) for 1 h; detected with mouse anti-Fn or anti-Fbg IgG; apparent Kd; in a further set increasing NaCl (0 to 1 M) strongly impaired the binding to rSrr2-BR
[2] = target: recombinant Srr2 binding region (rSrr2-BR) (Streptococcus agalactiae (GBS) strain BM110) (UniProt Q3S2Y8); test: SPR; rSrr2 proteins amine-coupled to a CM5 chip (Biacore X-100); Fn injected; 25 °C, HEPES-EP+ pH 7.4, 0.15 M NaCl, 30 uL/min; steady-state fit, 1:1 model
human fibrinogen (Fbg) = human fibrinogen (Fbg) (human, UniProt P02671 36-866); P02675 45-491; P02679 27-453, Plasma-derived, disulfide-linked hexamer, glycosylated. Chains are the circulating forms by convention: A-alpha 610 aa, B-beta 461 aa, gamma-A 411 aa (the canonical P02679 sequence is gamma-B, so gamm); test: ELISA; Srr2 proteins coated on microtiter wells (1 ug/well, 0.1 M sodium carbonate pH 9.5); soluble Fn (up to 240 nM) or Fbg (up to 7.5 nM) for 1 h; detected with mouse anti-Fn or anti-Fbg IgG; apparent Kd; in a further set increasing NaCl (0 to 1 M) strongly impaired the binding to rSrr2-BR; conditions: both partners purified
[3] = target: human plasma fibronectin (Fn) (human); test: ELISA; apparent; soluble Srr2-BR on immobilized Fn
human plasma fibronectin (Fn) (human), sequence (P02751 other isoform, or with tags, fused parts or gaps, chain 1 of 2): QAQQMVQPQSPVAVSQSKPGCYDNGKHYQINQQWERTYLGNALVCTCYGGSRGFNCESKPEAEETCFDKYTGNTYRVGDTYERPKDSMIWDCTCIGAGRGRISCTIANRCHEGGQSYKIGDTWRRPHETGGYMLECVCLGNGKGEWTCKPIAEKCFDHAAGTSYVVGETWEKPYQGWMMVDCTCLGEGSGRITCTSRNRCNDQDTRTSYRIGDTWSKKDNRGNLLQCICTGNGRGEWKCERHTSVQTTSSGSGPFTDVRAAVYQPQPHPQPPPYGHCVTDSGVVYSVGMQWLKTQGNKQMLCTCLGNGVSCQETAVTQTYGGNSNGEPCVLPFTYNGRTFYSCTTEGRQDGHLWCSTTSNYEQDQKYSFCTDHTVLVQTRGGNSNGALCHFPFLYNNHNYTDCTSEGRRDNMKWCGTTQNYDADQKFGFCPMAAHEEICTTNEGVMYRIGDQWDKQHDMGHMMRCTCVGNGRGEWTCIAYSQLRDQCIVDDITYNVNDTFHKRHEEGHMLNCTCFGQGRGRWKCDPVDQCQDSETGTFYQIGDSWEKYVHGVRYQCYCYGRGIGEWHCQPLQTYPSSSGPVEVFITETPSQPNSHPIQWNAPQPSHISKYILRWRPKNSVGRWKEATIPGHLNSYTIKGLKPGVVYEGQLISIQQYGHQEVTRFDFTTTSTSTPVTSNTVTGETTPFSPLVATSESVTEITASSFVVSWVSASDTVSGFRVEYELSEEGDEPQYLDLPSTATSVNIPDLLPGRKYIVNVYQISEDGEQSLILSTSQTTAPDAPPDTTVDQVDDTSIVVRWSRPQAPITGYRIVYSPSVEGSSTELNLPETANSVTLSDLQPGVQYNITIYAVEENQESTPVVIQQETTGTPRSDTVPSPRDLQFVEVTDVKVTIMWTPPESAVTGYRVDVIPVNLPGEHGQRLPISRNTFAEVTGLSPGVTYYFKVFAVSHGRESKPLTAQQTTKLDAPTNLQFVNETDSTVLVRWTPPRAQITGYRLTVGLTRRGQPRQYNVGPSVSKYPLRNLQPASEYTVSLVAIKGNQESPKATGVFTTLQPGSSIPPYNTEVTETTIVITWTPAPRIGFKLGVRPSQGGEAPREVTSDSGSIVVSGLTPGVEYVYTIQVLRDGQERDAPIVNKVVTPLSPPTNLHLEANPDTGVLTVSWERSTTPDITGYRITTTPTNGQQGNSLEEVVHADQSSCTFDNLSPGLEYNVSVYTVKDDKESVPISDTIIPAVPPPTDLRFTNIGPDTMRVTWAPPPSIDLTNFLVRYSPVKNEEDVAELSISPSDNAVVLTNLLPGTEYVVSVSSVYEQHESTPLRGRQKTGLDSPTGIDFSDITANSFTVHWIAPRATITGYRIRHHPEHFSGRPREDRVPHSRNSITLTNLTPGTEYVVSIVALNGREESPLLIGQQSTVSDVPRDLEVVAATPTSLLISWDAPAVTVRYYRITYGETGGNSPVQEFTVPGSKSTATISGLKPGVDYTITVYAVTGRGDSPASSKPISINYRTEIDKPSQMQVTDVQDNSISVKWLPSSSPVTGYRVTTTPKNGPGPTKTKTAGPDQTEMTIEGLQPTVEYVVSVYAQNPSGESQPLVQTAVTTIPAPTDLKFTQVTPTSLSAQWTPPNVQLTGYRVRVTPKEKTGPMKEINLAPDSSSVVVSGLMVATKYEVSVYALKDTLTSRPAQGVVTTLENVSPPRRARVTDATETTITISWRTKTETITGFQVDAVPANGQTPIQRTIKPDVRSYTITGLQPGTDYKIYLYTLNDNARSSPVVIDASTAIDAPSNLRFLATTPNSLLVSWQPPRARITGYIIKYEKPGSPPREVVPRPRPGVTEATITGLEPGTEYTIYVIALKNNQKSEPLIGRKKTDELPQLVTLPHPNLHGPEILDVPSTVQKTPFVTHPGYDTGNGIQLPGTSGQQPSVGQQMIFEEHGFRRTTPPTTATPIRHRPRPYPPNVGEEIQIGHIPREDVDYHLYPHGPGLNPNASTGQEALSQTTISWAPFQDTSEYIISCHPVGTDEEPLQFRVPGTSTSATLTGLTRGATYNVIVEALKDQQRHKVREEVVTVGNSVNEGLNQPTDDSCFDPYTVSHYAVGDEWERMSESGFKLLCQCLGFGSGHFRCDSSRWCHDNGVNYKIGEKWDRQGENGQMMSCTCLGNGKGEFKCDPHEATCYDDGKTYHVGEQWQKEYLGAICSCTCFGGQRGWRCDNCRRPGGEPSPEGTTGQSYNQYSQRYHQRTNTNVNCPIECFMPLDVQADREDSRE
human plasma fibronectin (Fn) (human), sequence (P02751 other isoform, or with tags, fused parts or gaps, chain 2 of 2): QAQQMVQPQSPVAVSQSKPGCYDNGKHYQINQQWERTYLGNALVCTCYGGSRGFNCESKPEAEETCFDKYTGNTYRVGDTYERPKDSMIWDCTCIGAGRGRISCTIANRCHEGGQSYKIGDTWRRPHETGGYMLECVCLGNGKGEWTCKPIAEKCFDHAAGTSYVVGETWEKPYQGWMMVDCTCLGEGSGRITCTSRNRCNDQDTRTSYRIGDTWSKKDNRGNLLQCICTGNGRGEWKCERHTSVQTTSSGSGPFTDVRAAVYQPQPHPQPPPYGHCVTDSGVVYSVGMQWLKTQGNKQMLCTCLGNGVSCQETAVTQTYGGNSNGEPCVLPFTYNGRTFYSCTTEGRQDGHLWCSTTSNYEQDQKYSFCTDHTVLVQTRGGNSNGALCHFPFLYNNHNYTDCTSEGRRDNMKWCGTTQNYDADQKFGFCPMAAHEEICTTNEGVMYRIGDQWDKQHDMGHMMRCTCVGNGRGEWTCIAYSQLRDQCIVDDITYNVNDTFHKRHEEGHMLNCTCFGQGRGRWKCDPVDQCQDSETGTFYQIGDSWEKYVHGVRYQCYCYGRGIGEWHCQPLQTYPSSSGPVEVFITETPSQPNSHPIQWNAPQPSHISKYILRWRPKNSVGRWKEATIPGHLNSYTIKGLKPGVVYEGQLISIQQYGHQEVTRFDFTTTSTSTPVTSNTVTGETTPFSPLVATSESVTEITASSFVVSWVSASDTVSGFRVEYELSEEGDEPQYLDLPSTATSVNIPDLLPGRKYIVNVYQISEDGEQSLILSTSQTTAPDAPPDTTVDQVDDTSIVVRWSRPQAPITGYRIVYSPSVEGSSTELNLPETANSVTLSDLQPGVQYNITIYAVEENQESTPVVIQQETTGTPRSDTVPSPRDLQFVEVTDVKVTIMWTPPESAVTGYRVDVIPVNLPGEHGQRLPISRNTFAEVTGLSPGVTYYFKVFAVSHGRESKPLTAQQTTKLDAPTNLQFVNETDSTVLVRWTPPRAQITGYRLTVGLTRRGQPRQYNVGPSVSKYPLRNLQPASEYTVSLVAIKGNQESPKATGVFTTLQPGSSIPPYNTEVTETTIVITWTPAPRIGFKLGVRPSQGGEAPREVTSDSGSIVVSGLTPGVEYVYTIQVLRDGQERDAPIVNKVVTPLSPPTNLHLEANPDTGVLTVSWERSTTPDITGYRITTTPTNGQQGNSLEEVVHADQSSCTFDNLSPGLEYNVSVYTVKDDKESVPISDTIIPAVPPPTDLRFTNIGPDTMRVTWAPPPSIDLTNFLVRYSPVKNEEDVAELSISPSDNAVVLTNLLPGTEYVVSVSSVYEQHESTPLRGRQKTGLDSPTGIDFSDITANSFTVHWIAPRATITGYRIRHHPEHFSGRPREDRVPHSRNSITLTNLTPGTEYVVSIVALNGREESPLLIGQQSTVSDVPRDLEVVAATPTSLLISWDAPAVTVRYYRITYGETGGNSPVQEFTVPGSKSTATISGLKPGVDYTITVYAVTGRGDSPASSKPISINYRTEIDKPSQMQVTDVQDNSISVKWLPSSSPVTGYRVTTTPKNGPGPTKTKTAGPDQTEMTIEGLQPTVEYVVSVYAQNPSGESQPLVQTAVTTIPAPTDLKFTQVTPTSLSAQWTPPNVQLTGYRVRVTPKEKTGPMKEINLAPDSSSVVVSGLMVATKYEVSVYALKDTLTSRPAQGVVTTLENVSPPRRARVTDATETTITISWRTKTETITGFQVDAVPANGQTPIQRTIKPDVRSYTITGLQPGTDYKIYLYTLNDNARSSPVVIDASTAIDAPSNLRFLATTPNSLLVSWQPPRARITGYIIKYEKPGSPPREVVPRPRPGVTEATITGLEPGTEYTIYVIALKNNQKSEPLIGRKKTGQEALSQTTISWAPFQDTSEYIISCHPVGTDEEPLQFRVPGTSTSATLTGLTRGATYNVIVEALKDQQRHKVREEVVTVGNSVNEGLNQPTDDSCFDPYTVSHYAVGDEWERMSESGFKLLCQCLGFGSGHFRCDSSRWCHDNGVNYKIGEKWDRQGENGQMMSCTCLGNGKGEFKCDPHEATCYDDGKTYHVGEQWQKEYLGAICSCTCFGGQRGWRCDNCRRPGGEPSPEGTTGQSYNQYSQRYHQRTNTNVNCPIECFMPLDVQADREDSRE

| Molecule | Kd [1] [nM] | Kd [2] [nM] | Kd (human fibrinogen (Fbg)) [nM] | Kd [3] [nM] |
| --- | --- | --- | --- | --- |
| human plasma fibronectin (Fn) (natural protein) | 30 | 92 | – | – |
| B1 | – | – | 0.45 ± 0.02 | 629 |
